# B1: SEQ ID NO: 29: exemplary polypeptide of the present disclosure; artificial polypeptide of formula (I) X-Y (protein)
# chain: SEKKQPVDLGLLEEDDEFEEFPAEDWAGLDEDEDAHVWEDNWDDDNVEDDFSNQLRATVLLMILVAETPYGAYVLHQKGRMASAFLAA
# Columns and labels:
# [1] = tested on: VZV-induced pain model in rats; test: VZV-induced pain model in rats, mechanical allodynia (von Frey) test; assay type: in vivo, rat; conditions: for 50% PWT (paw withdrawal threshold), analgetic effect: vs placebo
# Experimental: A summary of the method for inducing pain model in rats by means of subcutaneous VZV inoculation is provided hereinafter. Briefly, male Sprague Dawley (SD) rats were deeply anesthetized by intraperitoneal injection of a Zoletil R: 50 (30 mg/kg)/xylazine (6 mg/kg) anesthetic at an injection volume of 6 mL/kg, and then the virus inoculation was performed by subcutaneous injection at the footpad area. The infection dose was 22800 TCID50 per animal, and the infection volume was 150 μL for all rats.
# Administration was performed on alternate days. Briefly, the test articles were administered by subcutaneous injection at the footpad area on Day 1 and Day 3, respectively. As for Group 2, the administration of SEQ ID NO: 29 was initiated from the first concentration. Namely, the first concentration (10 μg/mL) was administered on Day 1, and the second concentration (20 μg/mL) was administered on Day 3. Pain was measured once after each administration.
# Mechanical allodynia tests (also called “von Frey tests”) for pain measurements were performed on the rats one hour after administration of the test articles on Day 1 and Day 3, respectively. In the behavioral test for rats, mechanical allodynia is expressed as the 50% paw withdrawal threshold (PWT), which is calculated according to the following formula:
# [formula] • wherein • Xf=final test fiber value used in the test • k=tabular value for the pattern of positive/negative responses (Chaplan et al. 1994, page 62) • δ=mean difference.
# Briefly, the rats were placed individually in plexiglass boxes with a grid at the bottom to ensure that the rats' feet could be tested. The rats were acclimated to the environment for 15 minutes prior to the test. After the acclimation was completed, pain (mechanical allodynia) was tested on the center of the sole of the left hind foot of the rats using test fibers. The test fibers included 8 test strengths: 3.61 (0.4 g), 3.84 (0.6 g), 4.08 (lg), 4.31 (2 g), 4.56 (4 g), 4.74 (6 g), 4.93 (8 g) and 5.18 (15 g). During the test, the test fibers were pressed vertically against the skin and forces were applied to bend the fibers for 6-8 seconds with a 5-second interval between each test. During the test, a pain response was recorded if the animals quickly withdrew their feet. The pain response was also recorded if the animal withdrew their feet as the test fibers left the animal's skin. The pain response was not recorded if the animal moved or ambulated, and the test should be repeated. The test was started with 4.31 (2 g). If the animal had pain response, the next test should be performed with a test fiber with a lower strength: if the animal has no pain response, the next test should be performed with a test fiber with a higher strength. The maximum strength of the tested fibers was 5.18 (15 g). The test results were recorded in a table, wherein the presence of pain response was recorded as “x”, and the absence of pain response was recorded as “0”.
# The rats were randomly divided into 2 groups, with 8 rats in the placebo group (Group 1, administered with vehicle (normal saline)) and 8 rats in the treatment group (Group 2, administered with 30 mg SEQ ID NO: 29/kg). Briefly, the test articles were administered to the rats on a single day by intravenous injection.
# Mechanical allodynia tests were performed on the rats 0.5 h after administration of the test articles according to the method as recited in Example 1, respectively.
# The rats were randomly divided into 3 groups, with 8 rats in the placebo group (Group 1, administered with vehicle (normal saline)) and 16 rats in the treatment groups (Groups 2 and 3, 8 rats/group, administered with various polypeptides). Briefly, vehicle (normal saline) was administered to the rats from Group 1 and various polypeptides were administered to the rats from Group 2 (SEQ ID: 29, SEQ ID: 57 and SEQ ID: 49; 10 mg polypeptide/kg) and 3 (SEQ ID: 75 and SEQ ID: 28: 10 mg polypeptide/kg) on a single day by intravenous injection.
# [2] = tested on: eye pain (ocular neuropathic pain) model induced by benzalkonium chloride in mice; test: Eye pain model induced by benzalkonium chloride in mice, scratching behavior test; assay type: in vivo, mouse; conditions: eye drops TID, 30 μg/ml, 10 μL (0.3 μg/eye/each time), after 2 days of treatment, 2M NaCl challenge, vs model group
# Experimental: C57BL/6JNifdc mice were used in the experiment. Briefly, each of the mice was fixed with one hand, with one eye prop opened with the other hand (and fixed with another lab technician). The modeling drug, i.e., 0.1% benzalkonium chloride was dripped into one eye (twice a day (9:00, 17:00), 10 μL each time) and maintained for 30 seconds. The operation was repeated for six days.
# In order to evaluate the pathological changes at the front of the mice's eyes, slit lamp photos were taken on the third day since the beginning of modeling. According to the photographic results, the mice's eyes were scored from three viewing angles, including corneal opacity (0: clear, 1: visible opacity, 2: difficult to find, 3: pupil invisible), conjunctival edema (0: absent, 1: slight edema, 2: edema, 3: severe edema) and congestion (0: absent, 1: slight congestion, 2: congestion, 3: severe congestion, 4: hemorrhage), to access and evaluate the damages at the front of the mice's eyes. The mice were then randomized into groups. […]
# Scratching behavior test: The eyes were administered for two consecutive days. […] After acting for 5 seconds, the mice were released back into the cage, and the numbers of wipes over the eyes within 30 seconds were counted.
molecule,measurement,setting,value
B1,analgetic effect (50% PWT),"[1]; 10 mg polypeptide/kg i.v., single administration, tested 0.5 h after administration",apparent analgetic effect
same,"50% PWT (paw withdrawal threshold), analgetic effect","[1]; 30 mg/kg i.v., single administration, tested 0.5 h after administration",significantly increased the 50% PWT values of the rats
same,"50% PWT (paw withdrawal threshold), analgetic effect","[1]; s.c. (footpad) 10 then 20 μg/mL, 50 μL, tested 1 h after administration",increased the 50% PWT values of the rats in a dose-dependent manner
same,numbers of wipes over the eyes within 30 seconds,[2],significantly decreased numbers of wiping over the eyes (P<0.01)

# Reference: patent US20260022144A1, “ANALGESIC POLYPEPTIDE” (Shanghai Puyou Biomedical Co., Ltd., priority 2022, published 2026)
